Experimental findings from US20150086535A1 are described below.

This assay concerns the target retinoblastoma protein (RB1) (human) (UniProt P06400). Description: cell-based or functional assay.

Sequence of retinoblastoma protein (RB1) (human) (P06400 2-928 limits assumed): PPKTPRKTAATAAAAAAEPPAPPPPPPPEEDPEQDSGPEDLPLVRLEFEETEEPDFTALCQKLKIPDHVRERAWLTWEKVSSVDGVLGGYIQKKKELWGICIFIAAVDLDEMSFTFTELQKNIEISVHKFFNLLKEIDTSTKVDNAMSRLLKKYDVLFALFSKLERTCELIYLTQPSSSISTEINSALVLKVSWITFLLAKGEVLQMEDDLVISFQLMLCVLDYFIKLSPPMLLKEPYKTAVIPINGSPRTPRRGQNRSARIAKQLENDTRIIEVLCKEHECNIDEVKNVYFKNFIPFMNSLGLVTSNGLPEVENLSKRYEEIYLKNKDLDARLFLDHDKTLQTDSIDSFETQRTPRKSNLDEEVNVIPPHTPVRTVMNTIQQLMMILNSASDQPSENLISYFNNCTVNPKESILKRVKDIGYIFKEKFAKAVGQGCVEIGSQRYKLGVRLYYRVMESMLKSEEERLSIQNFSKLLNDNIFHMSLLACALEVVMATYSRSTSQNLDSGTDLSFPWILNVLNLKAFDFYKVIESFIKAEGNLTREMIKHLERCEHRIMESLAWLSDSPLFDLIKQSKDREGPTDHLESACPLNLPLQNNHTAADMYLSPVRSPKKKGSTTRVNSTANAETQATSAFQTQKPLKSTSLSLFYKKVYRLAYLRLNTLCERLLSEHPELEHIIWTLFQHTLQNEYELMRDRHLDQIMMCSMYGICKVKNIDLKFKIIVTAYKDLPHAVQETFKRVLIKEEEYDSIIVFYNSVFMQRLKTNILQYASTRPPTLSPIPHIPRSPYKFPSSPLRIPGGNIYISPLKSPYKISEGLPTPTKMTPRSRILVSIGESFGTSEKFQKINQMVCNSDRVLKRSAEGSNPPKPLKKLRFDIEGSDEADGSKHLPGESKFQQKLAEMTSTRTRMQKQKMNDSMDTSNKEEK

As to “Truncated tumor-derived Merkel cell polyomavirus large T antigen LT339 (MCV339 strain, amino acid 1-455)”, the survivin protein level in BJ fibroblasts (ECL and quantitative LICOR immunoblotting) was 3 fold.
